Assay: label from the status in PepcDB records

Row | Sequence | protein production
1 | MRRLQREIRTYDEEQLKQVREELTTYDLMTRNALLQTAHDLRAKVEQEAVPEGEQATTYLKAVVDDRRHELSVFLPATQASAALENVRRHLVNQILSIGGKAKKLETERCAAERHLKRPTVEVVQREHDAHLRRLRQWQEVQSRFQTWHTYEQAYARWPDLAAAFDSGPTEAATRVATELHKRTLATMQEQDRWREFLRQATEQEHQRQLTPPEDDLPEDDLEEDTWAAAESSEPSGSLFSRLGHTLSRLMAPPGPDEVPSAATAPRETDGWDDVQPQIAPDPRSTVPGLWDDADDLTPVSPVAPARPAPSPPVYDAAAVPALDIDFSAAPRRSRTPAEQMPDPFARAARVRSARRTTTPLVPVPQQLDAAEMPAPRPARTPPGRPATAGNVAPPSAPRTARPPSPTLADFDLWDDEEDMPFGPPATPAPAAASVPQMVPTPRAAARPTPRPVSSPGPSPVPVSPASASVSHAAPWEEPAAGRPAPAPSGVSRRGATRLALPSEQLLDPLPNGARNTVQMDLDAERRGDMINETLRQFGLQAKVVDLARGPTVTRYEIEPAPGEKISRIASLSNDLARALAVGGVRVEAPVPGKSVIGLEVPNAEREPVTFHQATANPAFKNTRAKLPIILGKSIDGSMMVGDLAKMPHLLVAGSTGSGKSVCVNTLITSLLYRYLPTELRFVMIDPKMVELTPYDGIPHLVRPVVTNPADAAGVLLGAVAHMERRYKMMSQVGAKNLEQFNAKMRAVGEVELPHLVIIIDELADLMITSPKEVESAIMRLAQMARATGMHLILATQRPSVDILTSLIKVNIPARIAFAVSSSHDSRTILDTTGAERLTGMGDMLFYQPGLVKPLRLQGPYISEAESARITDELRRMMFDDDFIEAYGADFEGMISSSGPGGDRSQLDFSDPLLRQAALVCIEEGQGSVSRLQRRLSVGHARAGKLMDLLEAMNIVGPHQGSKPREVLIHEADLPEYFGK | failed
2 | MAKSQIEPGVPITLQELYPSSLFYKEGVSLRVTAMLRGYSVETAIGVIEDGGRSLKINTQNIRDVSFRVGSIYQFIGELHIEQPNNEARTGRNVDGIDMNLYRKTIELLRQFLKEEDNSNMVE | failed
3 | MGHHHHHHSHMTLEEFSAGEQKTERMDKVGDALEEVLSKALSQRTITVGVYEAAKLLNVDPDNVVLCLLAADEDDDRDVALQIHFTLIQAFCCENDINILRVSNPGRLAELLLLETDAGPAASEGAEQPPDLHCVLVTNPHSSQWKDPALSQLICFCRESRYMDQWVPVINLPER | failed
4 | MRITRIMKTAKTARTTTSTRTSGARQAAAPLIKFSLFALVTMVATTLLAATIVNISLTPEHTYRAVFSDVTGLEKGDDIRVAGVRVGQVEGIRIKDRTLAEVTFTVGEDRPLLNSTGAVVRYRNLVGQRYVALTEGAGDATRLKPGATIPLSRTQPALDLNALLNGFKPLFAALSPQDVNQLATEIIRTLQGEGGTVNSLLAHTASLTTTLAGRDKLIGSVIDNLNTVLETLDQRGARFSGLLKQLRRVISGLSADRKPIGQSLVGIGDLTDATSGLLKDARPPLKDDIAELTDLTGTLNKNENTVEGVLKRLPNKLGELTGTASYGSWFNFYLCDFDGRIVLPKTKQVLTPELHVARARCGA | failed
5 | SAAVGAEARGAWCVPCLVSLDTLQELCRKEKLTCKSIGITKRNLNNYEVEYLCDYKVVKDMEYYLVKWKGWPDSTNTWEPLQNLKCPLLLQQFSNDKHNYLSQVITSEEAERRGQFYDNKGITYLFDLDYESDEFTVDAARYGNVSHFVNHSCDPNLQVFNVFIDNLDTRLPRIALFSTRTINAGEELTFDYQMKGSGDISSDSIDHSPAKKRVRTVCKCGAVTCRGYLN | failed
6 | MKNPVPRIIKTPVIAMYHDDRREELTIEVELSDVKDENITLMMHENSFYIKAFSETVEYLGSFFLDGPVDPEKAVAANNNGMLTIKVPYKEGFTCARFIHVD | failed
7 | YLKLVRIYTKPKGQLPDYTSPVVLPYSRTTVEDFCMKIHKNLIKEFKYALVWGLSVKHNPQKVGKDHTLEDEDVIQIVKK | not failed
8 | MNLKDLLAHRENLMDSAKRARSAITDDMDPADAAQAVENVKSIISEIESTDEAIAARRGVSDVTQKLKGLTITERGTENDSAASRSLGEHFVKAAGDRLKNQAAGAHIEYSVPEYQVKEDAHSSPKDLVEGWGTFYQR | not failed
9 | MASILFFEKPGCQNNTRQKAWLELSGHTVDAVNILEYAWTKEELSLYLGENPISACFNPAAPEVKTGSMKPELLNKEDALDAMIKKPLLIRRPLLKIGNHYLQGFDTAVLRTIIS | failed
10 | VIVESLVYHLSGKTYESRLVYEPGALGRPGLVMAPNWMGIGEGAERIAKEVAEKGYVVLIADLYGQSVRPSNADEAGVAMMPLKNDRGELRKRMQEALAQLLGQSKALLEPGKVATFGFCFGGCCALELARSGADLRAAVSFHGTLDTPNPEDAKRIKGSVLVLHGASDPLVPKEQLPAFEDEMNAAKVDWQLLSYGGAVHSFTDPNANMPGKMQYDRRTSERAFRSMHNLLSEVF | failed
11 | MDIAELINHPELLLLVLAPLFFVCILLEWYLGDRRQKLPVSARYHAKEVLCNFSLAAMHQGTDILAGLLIAKLYLAIFGWKLFDIQMGPFTFVLLMVAQDFCYYWFHRASHRIRWMWAAHVVHHSSENMNFSTAFRQSLMYPFAGMWVFWLPLVILGFDPNWVVFVVLLSLGLQFFVHTQAVRKLGPLEWLFNTPSHHRVHHGRNPQYIDKNYAGILIIWDKLFGTFVPEEETVIYGITKPVNSFNPLKVTFSEWHDMFREVTTKGLSLSKRLGILFAPPASYQKDD | failed
12 | MFLLQQLDHTVKKMKSQLANFFTIINLSCGVFAILFTLQGELRVSLLFITIAAVFDRLDGAAARKFDCASDFGKQLDSLTDIISFGVAPALMIYHAILFDFGYAGALFTVFYIACGAIRLARFNITENHNSFIGLPITAAGCILTLLYLAVGYWPDYTFMFAILILSFLMVSTIRVRKM | failed
13 | MSGLRAGHMPKGRLSGRPSFYFFSQAKLMSRQLDHGRETLMDIFHRHRLSNEGYAASVLERAMQTAEHRPEALVWKGMAALAHNPKLAFLFFINAAQLLPDRADVQALVGRALLAQGLAVLATRYLTQAWQKLPDDASLRMLLWQARSQSEPPATLRSMILAHLPEINAPKELAQVIKLLAAQADAPRRIGVVRYLETHREIQGWAIDLGNLQAPASLKIEADSVNVDAVASIPHPLLSAAGLCTTHGGLRVSVPNPKAQVHIRFADNTHLVGSPVFAMPSFVPPIEQGTQVEQKHVDVLIPVYNGLHETLECINSALEARKLNRTPHRLVVIEDATPVPALAKALKMLAGKGKITLVNNAVNMGFIRTMNRAMALSPGRDVVWLNADTRVQGNWLDRLRNIAHSSADIASVTPFTNNGELMSFPQSQVSHAMPNAREQAALDELAKHANISPVEIETGCGFCLYIKRAALNQVGYLDEVYLARGYGEETDWCLRARSFGWRHMGAPNVFVAHQGGISFGAEKTLRVAHNNAILRRRYPGASARYSAFCLRDPIKAARDALQRARLARFAQQSDEQKASQWPMEAGNTLHIHDGTGADSTLSLVWHRDSHRTWVTLKAPLAPLPLELDYEMPGEFSELVQNLATLPLKGVVLEHQVQCPSKLCDLPSLLNIPYTIVHRDGHLQGLDATYDWQRLANRAESVVLPWQSWHSAFAEAFPQANLVIQPCAELPTPATSQPNILLIGDALDDTDIIQTWVRLGRRITRERLPLTLLVKQDTPWLKTLSATGAVQALPQVTGFSLPEIAKATGCDAVVSLAASPGEKWLAPELASQLDLPLYTRCHSLGTEAGATCVTQLPFSLSQA | failed
14 | MSDQDVNPEHISDAQPAGTGLVLPGQTLPTTLYVIPIHNRPFFPAQVLPVIVNEEPWAETLELVAKTDHHSLALFFMDNPPEDPRHFDVNSLPEHGTLVRVHHASREGGKLQFVAQGLSRVRIRGWIKRHRPPFMVEVDYPKTPIDPSDEVKAYGMALINAIKELLPLNPLYSEELKNYLNRFSPNDPSPLTDFAAALTTAPGGELQEVLDTVPILKRMEKVLPLLRKEVEVARLQKELSAEVNRKIGEHQREFFLKEQLKIIQQELGITKDDKSADADEFRARLEGKVLPEQARKRIDEELNKLSILESGSPEYAVTRNYLDWATALPWGVYGKDKLDLKHARKVLDKHHAGLDDIKDRILEFLAVGSFKGEIAGSIVLLVGPPGVGKTSIGKSIAESLGRPFYRFSVGGMRDEAEIKGHRRTYIGALPGKLVQALKEVEVMNPVIMLDEIDKLGASYQGDPASALLETLDPEQNVEFLDHYLDLRLDLSKVLFVCTANTLDSIPGPLLDRMEVIRLSGYISEEKLAIAKRHLWPKQLEKAGVPKGRLSISDAALRAVIEGYAREAGVRQLEKQLGKLVRKSVVKLLEDPESKVKIGPRDLEDYLGMPVFRSEQVLSGIGVITGLAWTSMGGATLPIEATRIHTLNRGFKLTGQLGDVMKESAEIAYSYIGSHLKKYGGDPTFFDQAFVHLHVPEGATPKDGPSAGVTMASALLSLARNQVPKKGVAMTGELTLTGQVLPIGGVREKVIAARRQKIFELILPEANRGHFEELPDYLREGLTVHFAKRYGDVAKVLF | failed
15 | MVTPSLRLVFVKGPREGDALDYKPGSTIRVGRIVRGNEIAIKDAGISTKHLRIESDSGNWVIQDLGSSNGTLLNSNALDPETSVNLGDGDVIKLGEYTSILVNFV | not failed
16 | MDIKELKEIATKSREKQTKIRIRCCSAAGCLSSEGETVKKNLTTAIAAAGLEEKVEVCGVGCMKFCGRGPLVAVDDRNQLYEFVTPDQVGDIVKKLQKPDAVAETGLISGDPHHPFY | failed
17 | MNTTDRDASHTLLEQVNQALQDNTPLRIRGGNSKAFLGREVTGEPLDTRAHRGIVSYDPTELVITARAGTPLSEVLQALDAAGQMLPCEPPDIGAATLGGVVAAGLSGPRRPWSGSVRDFVLGTRLITGLGKHLRFGGEVMKNVAGYDVSRLLTGSFGCLGVLTEVSLKVLPKPRLCSSIALEMDSARALACLAEWGQQPMPISAASHDGRVLRLRLEGGEGSVAAAHERLGGELIDATYWQQLNEQRLPFFFDPGPLWRVCVPADTGVLDLPGEQLIDWAGAQRWLKSDASGDAIRAMTASVGGHATCYSQGRDDSPFHPLTTPLLRYHQALKTRLDPQGIFNPGRLYREL | failed
18 | QQKNMENKTLNENIPEMIISLEKEALASTDPMAFVELSDTDVIYFDPSLETKIEGLEQLRTYYKGMQLPPADHFDMIRPVVQVAQNIAVLTFNLDSYLSDKVIKWNCTEVYRRNPDNQWKIIQTHWSYVKPLD | not failed
19 | MSVVTESKTARKWAMPDTLVIIFFVAILTSIATWVVPVGMFDSQEVQYQVDGQTKTRKVVDPHSFRIVTNEAGEAQYHRVQFFTTGDERPGLMNFPFEGLTSGSKFGTAVGIIMFMLVIGGAFGIVMRTGTVDNGILALIRHTRGNEVLFIPVLFVLFSLGGAVFGMGKEAVAFAIIIAPLMVRLSYDSITTVLVTYIATQIGFASSWMNPFCVVVAQGIAGVPVLSGSGLRIVVWIVATLIGLVFTLVYASRVKKNPLLSRVHESDRYFREQQDEVVQRPFTFGDWLVLLVLTGVMIWVVWGVIVHAWFIPEIASQFFTMGVVIGLIGVIFRLNGMTVNVMASSFTEGARMMIAPALLVGFAKGILLLVGNGEAGEPSVLNTLLNSIAHGISGLNNAIAAWFMLLFQAVFNFFVTSGSGQAALTMPLLAPLGDLVGVNRQVTVLAFQFGDGFSHIIYPTSASLMATLGVCRVDFRNWLKVGASLLGLLFIMSSVVVIGAQMMGYH | failed
20 | MKLKEVTEGKVRIFVPDPTGYMVEGKFDPSWAPVFYNPKMTFNRDLSVIVVSILKPKIIVDALSATGIRGIRYYVESWKSEQLILNDKNPNATSLIQINAKNNGIENAKIYNKDANALLYEVKSDYIDIDPFGSPAPFILSSLNAATRNGIVAFTATDLSPLEGSSPTSCRRKYDAINHKLSSSKELGLRVLIGKIIREAAILEKTVYPLFSFYADYYYRLFVRVENGARKADDNINKHLKYFGECPRCGFQTFVEENCKTKCPVCGEIFSIIGPLYIGPLYSMEFLKRIMDLYSNFNYLTSFNRIQKLLNVIEKEARFKNVFYNISKLASKLKISAIPPIESILECLGDASRTHFAPTGIRTDKEYEEITKCIKSLR | failed

Reference: a protein production outcome set (Wang et al. 2014)
